Consider one molecule from patent US8975044B2, “Polynucleotides encoding for frizzled-binding agents and uses thereof” (OncoMed Pharmaceuticals, Inc., priority 2008, dated 2015).

For this assay, the target named is T1, FZD8 binding to Wnt3A (Homo sapiens, UniProt Q9H461).
T1 construct: amino acids 1-157 of FZD8 linked in-frame to human IgG1 Fc
T1 sequence (Q9H461 28-157): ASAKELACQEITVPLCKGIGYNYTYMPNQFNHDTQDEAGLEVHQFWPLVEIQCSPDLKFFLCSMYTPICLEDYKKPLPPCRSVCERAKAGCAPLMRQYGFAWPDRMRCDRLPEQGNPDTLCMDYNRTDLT
Briefly: Blocking of FZD8-Fc binding to Wnt3A (protein A depletion, STF293 reporter readout). Type of assay: biochemical. The note with it: in the absence of 18R8. The method, then:
To assess the ability of 18R8 to block the binding of FZD to Wnt, 2 μl of 1.32 μg/μl soluble FZD8-Fc containing the Fri domain (amino acids 1-157 of FZD8 linked in-frame to human IgG1 Fc) was added to culture medium to bind Wnt3A (added as 20 μl of Wnt3A conditioned medium) either alone or in the presence of the 18R8 IgG antibody (added as 4 μl of 3.71 μg/μl). The mixtures were incubated either alone or in the presence of Protein A sepharose beads (GE Healthcare products; 20 μl of 50% solution in PBS) for two hrs at 4° C. After the incubation, the protein A beads (and any proteins complexed to the protein A beads) in each sample were removed by spinning and the supernatant was assayed for ability to induce 8×TCF luciferase activity. The supernatant was added to STF293 cells, which stably express 8×TCF (eight copies of the TCF-binding domain upstream of a firefly luciferase reporter gene) to measure canonical Wnt signaling levels and which were cultured in DMEM supplemented with antibiotics and 10% FCS. Eighteen hours following treatment of the STF293 cells, luciferase levels were measured using a dual luciferase assay kit (Promega; Madison, Wis.).

B1: Fzd8-Fc: soluble FZD8-Fc containing the Fri domain (amino acids 1-157 of FZD8 linked in-frame to human IgG1 Fc) (protein)
chain: T1 sequence (Q9H461 28-157)
modifications: left off: a dimerising Fc or GST
As for B1, the “effect on Wnt3A-stimulated signaling” value was “inhibit the ability of Wnt3A to stimulate signaling”.
